Laboratory results as given in PMC5095173, “Disulfide-activated protein kinase G Iα regulates cardiac diastolic relaxation and fine-tunes the Frank–Starling response” (Nature Communications, 2016).

B1: Matr3 pT150 (protein, UniProt P43244 2-845, looked up)
Matrin-3: SKSFQQSSLGRDSQGHGRDLSAAGIGLLAAATQSLSMPASLGRMNQGTARLASLMNLGMSSSLNQQGAHSALSSASTSSHNLQSIFNIGSRGPLPLSSQHRGDTDQASNILASFGLSARDLDELSRYPEDKITPENLPQILLQLKRRRTEEGPTLSYGRDGRSATREPPYRVPRDDWEEKRHFRRDSFDDRGPSLNPVLDYDHGSRSQESGYYDRMDYEDDRLRDGERCRDDSFFGETSHNYHKFDSEYERMGRGPGPLQERSLFEKKRGAPPSSNIEDFHGLLPKGYPHLCSICDLPVHSNKEWSQHINGASHSRRCQLLLEIYPEWNPDNDTGHTMGDPFMLQQSTNPAPGILGPPPPSFHLGGPAVGPRGNLGAGNGNLQGPRHMQKGRVETSRVVHIMDFQRGKNLRYQLLQLVEPFGVISNHLILNKINEAFIEMATTEDAQAAVDYYTTTPALVFGKPVRVHLSQKYKRIKKPEGKPDEKFDQKQELGRVIHLSNLPHSGYSDSAVLKLAEPYGKIKNYILMRMKSQAFIEMETREDAMAMVDHCLKKALWFQGRCVKVDLSEKYKKLVLRIPNRGIDLLKKDKSRKRSYSPDGKESPSDKKSKTDGAQKTENPAEGKEQEEKSGEDGEKDTKDDQTEQEPSMLLESEDELLVDEEEAAALIESGSSVGDETDLANLGDVSSDGKKEPSDKAVKKDASATSKKKLKKVDKIEELDQENEAALENGIKNEENTEPGAESAENADDPNKDASDNSDGQNDENKEDYTIPDEYRIGPYQPNVPGGIDYVIPKTGFYCKLCSLFYTNEEVAKNTHCSSLPHYQKLKKFLNKLAEERRQKKES
modifications: phosphorylated at T150
B2: Matr3 pS188 (protein, UniProt P43244 2-845, looked up)
Matrin-3: B1 Matrin-3
modifications: phosphorylated at S188
B3: Map4 pT899 (protein, UniProt Q5M7W5 2-1057, looked up)
Microtubule-associated …: ADLSLVDALTEPPPEIEGEIKRDFMAALEAEPYDDIVGETVEKTEFIPLLDGDEKSGNSESKRKPCVDTSQVEDIPSSKPTLLANGDHGVEGNNTTGSPTDFLVENVDYEDYQNSQSWPEDASFCFQPQQVLDTNQADPFNVHHDDGLADLLFVSSGPTNASAFIEENNPLEDSYGVLPCDSFAPTAVVSQEWSVGAPDSPHSEPCVSPEVTIETAQPATELSKAVDLESVKEQLPAKALEMMAGQTTDAVPSKESEGSPDTDAAPGPDTDVTLTKDIEESSSPDVISANVTQPFTESDMFLTQEMELLIGTEAAQVKDTMSSVEPDISSAKNTAPPTEEETVPGKDMTFPKEAETALPIEMDLAPPEDVALPKETELELAPAAGTAPLSETEVALAKDEEPSTGIPAAQEMLLSSETEVVLPSDSIMTLTKEVTVPLEAAGPLVSDMTAILETEMTLGGGTATPTETKLGKVKDMAPLPESEVALGKDVVTLPETKVTEFNNVTPLSEEEVASIKDVSPSPETETAKNADLHSGTELTLDNSMTPPSDPALPLETKVATVQIKDKETVQTQEELSEDSQLESVQLEGQSAVPPCTISPEPVKAADQKSTLPVDEGSPLEKLEQKETSGSQPPELCSGVSRQEEGKAAVGLTGNDIATPPNKELPPSPEKKAKPLATTQPAKTSTSKAKIQPTSLPKQPAPTTSGGLNKKPMSLASGSVPAAPHKRPAAATATARPSTLPARDLKPKPITETKVAEKRTSPSKPSSAPALRPGPKTTPTISKATSPSTLVSTGSSSRSPSTTLPKRPTTTKTEGKPADVKRMTAKSATADLSRSKTTSASSVKRNTTPTGATPPAGMASTRVKPMSAPCRSSVALSVDKKPTSTKPSSSAPRVSRLATTVSAPDLKSVRSKVGSTENMKHQPGGGRVQIQNKKVDISKVSSKCGSKANIKHKPGGGDVKIESQKLNFKEKAQAKVGSLDNVGHLPAGGTVKTEGGGSEAPPCPGPPAGEEPAIPEAAPDAGAPTSASGLSGHTTLSGGGDQREPQTLDSQIQETSI
modifications: phosphorylated at T899
B4: Ptrf pT304 (protein, UniProt P85125 1-392, looked up)
Caveolae-associated protein 1: MEDVTLHIVERPYSGYPDASSEGPEPTPGEARATEEPSGTGSDELIKSDQVNGVLVLSLLDKIIGAVDQIQLTQAQLEERQAEMEGAVQSIQGELSKLGKAHATTSNTVSKLLEKVRKVSVNVKTVRGSLERQAGQIKKLEVNEAELLRRRNFKVMIYQDEVKLPAKLSVSKSLKESEALPEKEGDELGEGERPEEDAAAIELSSDEAVEVEEVIEESRAERIKRSGLRRVDDFKKAFSKEKMEKTKVRTRENLEKTRLKTKENLEKTRHTLEKRMNKLGTRLVPVERREKLKTSRDKLRKSFTPDHVVYARSKTAVYKVPPFTFHVKKIREGEVEVLKATEMVEVGPDDDEVGAERGAETDLLRGSSPDVHTLLEITEESDAVLVDKSDSD
modifications: phosphorylated at T304
B5: Ptrf pS169 (protein, UniProt P85125 1-392, looked up)
Caveolae-associated protein 1: B4 Caveolae-associated protein 1
modifications: phosphorylated at S169
B6: Ptrf pS302 (protein, UniProt P85125 1-392, looked up)
Caveolae-associated protein 1: B4 Caveolae-associated protein 1
modifications: phosphorylated at S302
B7: Murc pS257 (protein, UniProt B1PRL5 1-362, looked up)
Caveolae-associated protein 4: MEHNGSASNAGKIHQNRLSSVTEDEDQDAALTIVTVLDRVATVVDSVQASQKRIEERHREMGNAIKSVQIDLLKLSQSHSNTGYVVNKLFEKTRKVSAHIKDVKARVEKQQVRVTKVETKQEEIMKKNKFRVVIFQEDVPCPASLSVVKDRSLPENEEEAEEVFDPPIDLSSDEEYYVEESRSARLRKSGKEHIDHIKKAFSKENMQKTRQNFDKKVSGIRTRIVTPERRERLRQSGERLRQSGERLRQSGERFKKSISNATPSKEAFKIRSLRKPKDPKAEGQEVDRGMGVDIISGSLALGPIHEFHSDGFSETEKEVTKVGYIPQEGGDPPTPEPLKVTFKPQVRVEDDESLLLELKQSS
modifications: phosphorylated at S257
B8: Mylk3 pS444 (protein, UniProt E9PT87 1-786, looked up)
Myosin light chain kinase 3: MSGVSEEDPEGLGPQGLPALGGACLVTVDKKLNVLTEKVDRLLHFQEDVTEKLQCVCQGMDHLEQGLHRLEASQELGLAGPGSTSPAAAQAAWPEVLELVRAVRQEGAQHGARLEALFKMVVAVDRAITLVGSTIQNSKVDDFILQGTVPWRKGSLADGPEENKEQAEVAGVKPKHVLNTGSVQAATSRALWEESQKQDTPVGTVEGLPLIIDTSLKGADLTQAGASLRQGVEALDPGQEPPPTEAESRLPALASEDTGTTLELSVAIDRISEVLTSLRMSQSAGEGTSSSKPDCSEPGPQPLGPLTTDSDIHSDEGLPRISVRMREMTTPEELFETQGGSPIGSAEAPGPGTVLEDQIPKGARPFPPLPKRSCNNGGASAEEATGPGAEPIRGPSLVTRDWRDEPVGTTDLQQGRDPGAVSPEPGKDHAAQGPGRTEAGRRVSSAAEAAIVVLDDSAAPPAPFEHRVVSIKDTLISTSYTVSQHEVLGGGRFGQVHRCTERSTGLALAAKIIKVKNIKDREDVKNEINIMNQLSHVNLIQLYDAFESKNSFTLIMEYVDGGELFDRITDEKYHLTELDVVLFTRQICEGVHYLHQHYILHLDLKPENILCVSQTGHQIKIIDFGLARRYKPREKLKVNFGTPEFLAPEVVNYEFVSFPTDMWSVGVITYMLLSGLSPFLGETDAETMNFIVNCSWDFDADTFKGLSEEAKDFVSRLLVKEKSCRMSATQCLKHEWLNHLIAKASGSNVRLRSQLLLQKYMAQRKWKKHFHVVTAVNRLRKFPTCP
modifications: phosphorylated at S444
B9: Serbp1 pS391 (protein, UniProt Q9CY58 1-407, looked up)
SERPINE1 mRNA-binding protein …: MPGHLQEGFGCVVTNRFDQLFDDESDPFEVLKAAENKKKEAGGGGVGGPGAKSAAQAAAQTNSNAAGKQLRKESQKDRKNPLPPSVGVADKKEETQPPVALKKEGIRRVGRRPDQQLQGDGKLIDRRAERRPPRERRFEKPLEEKGEGGEFSVDRPIIERPIRGRGGLGRGRGGRGRGMGRGDGFDSRGKREFDRHSGSDRSSFSHYSGLKHEDKRGGSGSHNWGTVKDELTESPKYIQKQISYNCSDLDQSNVTEETPEGEEHPVADTENKENEVEEVKEEGPKEMTLDEWKAIQNKDRAKVEFNIRKPNEGADGQWKKGFVLHKSKSEEAHAEDSVMDHHFRKPANDITSQLEINFGDLGRPGRGGRGGRGGRGRGGRPNRGSRTDKSSASAPDVDDPEAFPALA
modifications: phosphorylated S391
B10: Micall1 pS307 (protein, UniProt D3ZQL6 1-855, looked up)
MICAL-like protein 1: MAGPRGALLAWCRRQCEGYRGVDIRDLSSSFRDGLAFCAILHRHRPDLLDFQSLSKENVFENNRLAFEVAEKELGIPALLDPNDMVSMSVPDCLSIMTYVSQYYNHFTSSGQAAASPPKPGKDPAAPSPTSTSPAVQPGEEAQGDDLSPDSLSEQGKPQPPSSACAACGQRVHLVQRYLAEGRLYHRHCFRCRQCSSTLVPGSYSSGPEEGTFVCAERCTRLGLGGRSGTRPLSLQKQQPAAAAEAKDGEDSDLSKSVVVVAAEADGLQASSEVQPHTLTKPPLPSKPQDLASPPVSRPTPAPRKASESSALTPPTPRPRSSLQQDGMVEQSVSGDLVNGRLQELPVPKPRGTPKLSERMTAPRKDPPWITLVQTEPKKKPAPLPPSSGPGPLSQASRQVENGGLEEKTQKSPAAEPEPKPYNPFEEEEEEEEASVPAVPSPAPAPPETTPKSLHPWYNITPTSSPKTKKRPAPKAPSASPLVLHASRLSHSEPPSATPSPALSVESLSSESSSHTANTEPSEPPAVPKSSSDPAVHVPGTPGTSANSVTPSAHSSLSSSGELGQPSGEQMPQARTRGSPGTHSTKPFSGATPTPFLLAGDQKSPAPPMGSSSPQMLIKSSCKENPFNRKPSPSTSPTVRKATKGAKPVRPPAPGHGFPLIKRKVQADQYIPEEDIYGEMDSIERQLDALEHSGVLLEEKLRGGANEGSEDDMLVDWFKLIHEKHLLVRRESELIYVFKQQNLEQRQADVEFELRCLLNKPEKDWTDDDRAREKVLMQELMTLIEQRDAIVNCLDEDRQREEEEDKMLETMIKKKDFQREAESDSKKKGKFKTMKVLKLLGNKRDAKSKAPTGKS
modifications: phosphorylated at S307

Key:
[1] = system: PKGIα (analogue-sensitive M438G), disulfide-activated; experiment: Chemical genetic phosphoproteomic screen, disulfide-activated PKGIα M438G versus unactivated control; assay type: biochemical, human PKGIα; substrates in rat heart homogenate; conditions: control = PKGIα C42S/M438G
Procedure, shortened: (§1)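 Substrates in rat left-ventricle homogenate (20 mg ml) are labelled by engineered Met438Gly PKGIα given a bulky N6-alkylated ATPγS analogue, either as disulfide-activated M438G (oxidized, DTT-free) or as cGMP-activated C42S/M438G. Covalent capture and LC–MS/MS identify sites relative to unactivated kinase.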

[2] = system: PKGIα (analogue-sensitive C42S/M438G), cGMP-activated; experiment: Chemical genetic phosphoproteomic screen, cGMP-activated PKGIα C42S/M438G versus unactivated control; assay type: biochemical, human PKGIα; substrates in rat heart homogenate; conditions: control = PKGIα C42S/M438G
Procedure, shortened: as §1

Row | Molecule | log2 fold change Disulfide vs Control [1] | log2 fold change cGMP vs Control [2]
1 | B1 | 1.381 | 3.582
2 | B2 | -0.9169 | 1.38
3 | B3 | 1.73 | 3.693
4 | B4 | 1.3031 | 3.045
5 | B5 | 2.165 | 4.006
6 | B6 | 1.32 | 3.161
7 | B7 | 0.9013 | 1.807
8 | B8 | 0.1624 | 3.077
9 | B9 | 3.516 | 6.458
10 | B10 | 1.417 | 2.266
